According to article PMC3080791:

Molecular target: α-dystroglycan isolated from skeletal muscle (UniProt Q28685)
Experiment: ELISA

UniProt Q28685, sequence (Q28685 30-653): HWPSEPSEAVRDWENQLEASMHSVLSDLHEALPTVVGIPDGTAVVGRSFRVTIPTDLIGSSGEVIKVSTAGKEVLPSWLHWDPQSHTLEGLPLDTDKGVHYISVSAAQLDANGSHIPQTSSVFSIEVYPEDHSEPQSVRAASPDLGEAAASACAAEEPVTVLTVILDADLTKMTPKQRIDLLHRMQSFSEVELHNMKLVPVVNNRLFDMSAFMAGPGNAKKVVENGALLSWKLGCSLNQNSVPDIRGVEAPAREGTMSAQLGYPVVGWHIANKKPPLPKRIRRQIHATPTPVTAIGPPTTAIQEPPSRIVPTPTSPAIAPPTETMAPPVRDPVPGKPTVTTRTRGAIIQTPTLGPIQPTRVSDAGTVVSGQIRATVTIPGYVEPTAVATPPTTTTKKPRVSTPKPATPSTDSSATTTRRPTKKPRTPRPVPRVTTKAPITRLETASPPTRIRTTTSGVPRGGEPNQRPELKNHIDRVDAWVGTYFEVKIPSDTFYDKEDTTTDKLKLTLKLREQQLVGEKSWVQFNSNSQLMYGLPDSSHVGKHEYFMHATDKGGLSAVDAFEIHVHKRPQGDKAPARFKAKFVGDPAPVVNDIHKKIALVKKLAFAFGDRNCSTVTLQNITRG

Substance: LCMV WE54 envelope glycoprotein displayed on FIV lentiviral vector particles (FIV-WE54) (complex)
- OD relative to wild-type LCMV WE54: 0.33
